The record followed here is patent publication US20230002494A1 (SANYOU BIOPHARMACEUTICALS, published 2023).

Numbering of substitutions follows the chain as printed. Where two headings read alike, the source gives them in different places.

In assay [1] the target is T1, rhesus monkey PD-L1 (full-length, on CHO-s cells) (rhesus monkey, UniProt F6VEW6 19-290).
T1 construct: whole, on cells; also called monkey PD-L1-CHO
Nature of the assay: FACS, monkey PD-L1-CHO cells. The text has this:
(§1) In order to evaluate 4 derisked VHH-Fc candidate antibodies, an FACS method is used to detect the binding activities thereof to cell expressed human PD-L1 and monkey PD-L1 proteins.
In general terms: A flow cytometer gives signals particle by particle.

In assay [2] the target is T2, human PD-L1 (full-length, on cells) (human, UniProt Q9NZQ7 19-290).
T2 construct: whole, on cells; Expressed on CHO-s cells; also called human PD-L1-CHO; PD-L1-CHO
T2 sequence (Q9NZQ7 19-290): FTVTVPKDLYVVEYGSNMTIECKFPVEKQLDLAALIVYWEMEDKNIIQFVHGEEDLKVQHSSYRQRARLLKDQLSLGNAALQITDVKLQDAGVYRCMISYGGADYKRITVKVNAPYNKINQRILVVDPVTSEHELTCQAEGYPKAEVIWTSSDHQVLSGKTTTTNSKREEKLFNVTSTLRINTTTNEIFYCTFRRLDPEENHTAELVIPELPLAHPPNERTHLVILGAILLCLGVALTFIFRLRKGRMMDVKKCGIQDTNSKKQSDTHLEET
Nature of the assay: FACS on human PD-L1-CHO cells, PE anti-human IgG Fc. The text has this: 1) collecting the cultured human PD-L1-CHO cells, centrifuging the collected cells at 300 g to remove the supernatant, resuspending the cells in a formulated FACS buffer and counting the cells, and adjusting the density of the cell suspension to 2×10⁶ cells/mL;

Assay [3] addresses T2, human PD-L1 (full-length, on cells). The experiment in a line: FACS, human PD-L1-CHO cells.
Text: as §1

For assay [4] the target is unchanged. Nature of the assay: FACS competition, human PD-L1-CHO cells, competitor biotin-labeled PD-1-Fc 1 µg/mL.
For assay [5] the target is unchanged. The experiment in a line: FACS on PD-L1-CHO cells, anti-Llama IgG FITC.
For assay [6], the target named is T3, B7-H3 protein, Sino Biological 11188-H08H (UniProt Q5ZPR3 29-461).
T3 construct: Bought protein
T3 sequence (looked up): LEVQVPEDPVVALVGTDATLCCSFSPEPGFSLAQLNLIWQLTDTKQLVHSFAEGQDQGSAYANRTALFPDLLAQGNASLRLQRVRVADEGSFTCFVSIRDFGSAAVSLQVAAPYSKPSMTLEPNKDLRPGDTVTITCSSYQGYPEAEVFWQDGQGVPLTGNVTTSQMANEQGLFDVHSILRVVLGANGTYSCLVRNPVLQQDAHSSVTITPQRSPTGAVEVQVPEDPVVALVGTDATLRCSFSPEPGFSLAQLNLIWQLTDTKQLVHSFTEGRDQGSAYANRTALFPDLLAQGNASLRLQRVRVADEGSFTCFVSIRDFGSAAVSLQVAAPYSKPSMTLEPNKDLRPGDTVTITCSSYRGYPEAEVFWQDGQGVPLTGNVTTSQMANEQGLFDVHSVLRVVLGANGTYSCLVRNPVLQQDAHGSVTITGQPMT
Nature of the assay: ELISA, plate coated with 2 µg/mL protein, anti-human IgG Fc-HRP, OD450. On the set-up: concentration or dose not given beside the values. Here is the method: (§2) The specific method is as follows:
(§3) one day prior to the experiment, 30 μL of protein diluents such as B7-H1 (i.e., PDL1), B7-H2, B7-H3, B7-H4 and B7-DC (the above-mentioned proteins are all purchased from Sino Biological Co., Ltd., with Cat. Nos. 10084-HNAH, 11559-H08H, 11188-H08H, 10738-H08H and 10292-H08H-B, respectively) are added to an ELISA plate at a final concentration of 2 μg/mL, and incubated at 4° C. overnight; the next day, the ELISA plate is rinsed 3 times with PBST, then blocked with 150 μL of 5% PBSM, and incubated at room temperature for 2 hours; the ELISA plate is rinsed 3 times with PBST again, and then 30 μL of candidate antibody and control antibody diluents are added thereto, and the plate is incubated at room temperature for 1 hour; the plate is rinsed 3 times with PBST, and an anti-human IgG Fc-HRP second antibody diluted at 1:7000 is added thereto (30 μL/well), and the plate is incubated at room temperature for 30 minutes; the plate is rinsed 6 times with PBST, then TMB is added thereto for color development, and finally, 2M HCl is added to stop the reaction.

For assay [7], the target named is T4, B7-H2 protein, Sino Biological 11559-H08H (UniProt O75144 19-258).
T4 construct: Bought protein
T4 sequence (looked up): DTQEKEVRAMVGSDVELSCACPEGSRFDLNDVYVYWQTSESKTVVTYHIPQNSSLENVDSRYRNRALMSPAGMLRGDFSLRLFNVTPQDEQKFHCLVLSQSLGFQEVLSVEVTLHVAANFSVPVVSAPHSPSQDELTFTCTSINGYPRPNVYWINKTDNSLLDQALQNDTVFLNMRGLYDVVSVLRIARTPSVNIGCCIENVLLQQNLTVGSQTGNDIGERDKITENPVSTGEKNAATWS
Described as above. On the set-up: concentration or dose not given beside the values. Here is the method:
as §2, §3

The target of assay [8] is T5, B7-DC protein, Sino Biological 10292-H08H-B (UniProt Q9BQ51 20-219).
T5 construct: Bought protein
T5 sequence (looked up): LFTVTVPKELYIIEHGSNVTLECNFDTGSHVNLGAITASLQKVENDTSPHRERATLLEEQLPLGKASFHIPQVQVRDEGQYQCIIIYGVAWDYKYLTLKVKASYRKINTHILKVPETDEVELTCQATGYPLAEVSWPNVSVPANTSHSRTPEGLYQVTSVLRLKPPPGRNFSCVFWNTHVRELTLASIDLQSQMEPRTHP
Described as above. Further details: concentration or dose not given beside the values. Here is the method: as §2, §3

In assay [9] the target is T6, B7-H4 protein, Sino Biological 10738-H08H (UniProt Q7Z7D3 25-258).
T6 construct: Bought protein
T6 sequence (looked up): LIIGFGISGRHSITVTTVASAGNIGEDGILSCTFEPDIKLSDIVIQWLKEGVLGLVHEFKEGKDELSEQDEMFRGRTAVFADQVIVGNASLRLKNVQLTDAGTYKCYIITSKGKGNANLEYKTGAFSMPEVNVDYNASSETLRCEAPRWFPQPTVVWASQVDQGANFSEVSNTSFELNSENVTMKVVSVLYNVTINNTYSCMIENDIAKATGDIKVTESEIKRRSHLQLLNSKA
The description is as above. On the set-up: concentration or dose not given beside the values. The method, then:
as §2, §3

Assay [10] has as its target T2, human PD-L1 (full-length, on cells). Nature of the assay: FACS competition, human PD-L1-CHO cells, competitor biotin-labeled CD80 1 µg/mL.
For assay [11] the target is unchanged. The experiment in a line: FACS competition, human PD-L1-CHO cells, competitor biotin-labeled PD-1-Fc 1 µg/mL. This is another data set of the same source.
The target is the same in assay [12]. The experiment in a line: FACS, human PD-L1-CHO cells. The source holds these as a separate data set.
The target of assay [13] is T7, mouse PD-L1 (full-length, on CHO-s cells) (mouse, UniProt Q9EP73 19-290).
T7 construct: whole, on cells; also called mouse PD-L1-CHO
T7 sequence (Q9EP73 19-290): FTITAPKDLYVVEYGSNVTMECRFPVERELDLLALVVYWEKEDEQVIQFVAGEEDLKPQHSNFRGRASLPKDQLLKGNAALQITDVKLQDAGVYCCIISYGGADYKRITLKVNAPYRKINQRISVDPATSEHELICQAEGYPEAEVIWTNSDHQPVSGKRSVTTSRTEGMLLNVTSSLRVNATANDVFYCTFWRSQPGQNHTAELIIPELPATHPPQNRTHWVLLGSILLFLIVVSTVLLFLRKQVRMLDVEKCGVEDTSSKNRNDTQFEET
The experiment in a line: FACS, mouse PD-L1-CHO cells.

The target in assay [14] is T1, rhesus monkey PD-L1 (full-length, on …). Nature of the assay: FACS, monkey PD-L1-CHO cells. The text has this:
In order to evaluate the cross-reactivity of the VHH-Fc candidate antibodies to monkey PD-L1 and mouse PD-L1, an FACS method is used to detect the binding activity thereof to the mouse and rhesus monkey PD-L1 protein on cells.
This is another data set of the same source.

Assay [15] concerns the target T2, human PD-L1 (full-length, on cells). Nature of the assay: FACS blocking on huPDL1-CHO cells; blocked ligand PD-1-Biotin 1 µg/mL; MFI = bound PD-1.
In assay [16] the target is T7, mouse PD-L1 (full-length, on CHO-s …). Nature of the assay: FACS on mouse PD-L1-CHOK cells.
Assay [17] deals with T2, human PD-L1 (full-length, on cells). Nature of the assay: FACS on huPD-L1-CHOK cells.

B1: NB22D-21-huVH2 (Fc fusion, not shown: a dimerising Fc or GST)
chain: EVQLVESGGGLVQPGGSLRLSCAASRTDSNINGMHWYRQAPGKGREWVGTIFIDGNTIVTDSVKGRFTISRDNAKNTLYLQMNTLRAEDTAVYYCAADVSGYGRAWGQGTTVTVSS
notes: Humanized form of NB22D-21; also called humanized antibody NB22D-21-huVH2; D21-Vh2
In the case of B1, the EC50 in assay [1] came to 1.82 µg/mL; in assay [3], 0.72 µg/mL. Moreover, the “EC50 (read off the curve)” value in assay [2] was about 0.1 µg/mL. For the same molecule, the IC50 in [4] is 1 µg/mL.

B2: NB22D-21-24 VHH-Fc chimeric antibody protein (Fc fusion)
chain: B1 chain with D28F, N32F, D54T
notes: not shown: human IgG1 Fc fragment, its N-terminus linked to the C-terminus of the VHH
For B2, the figures for the EC50 in assay [1] and in assay [3] were 0.39 µg/mL and 0.14 µg/mL, respectively. Further, the IC50 in assay [4] was determined as 0.2 µg/mL.

B3: SY01-NB-027-M (VHH lysate) (VHH)
VHH: B1 chain with A24H, G33S, I51W, V99E, S100W, G101M
notes: Tested as VHH lysate of a monoclone from the phage display vector
On to B3, for which the binding result in assay [5] is listed as “binds”.

B4: SY01-201 (VHH lysate) (VHH)
VHH: B1 chain with A24H, N32H, G55L
notes: as for B3
Regarding B4, the binding result in assay [5] is given as “binds”.

B5: NB22D-21 chimeric VHH-Fc antibody (Fc fusion)
chain: B1 chain with L4V, V5Q, P14A, A24H, G44Q, E46D, R86K, A87P, Y94F, T111Q
notes: also called parental antibody NB22D-21; parent molecule; not shown: human IgG1 Fc fragment, its N-terminus linked to the C-terminus of the VHH
In the case of B5, the binding result was “no binding (tested: 10.00 (no unit on the sheet))” in assay [6]; “no binding (tested: 10.00 (no unit on the sheet))” in assay [7]; “no binding (tested: 10.00 (no unit on the sheet))” in assay [8]; “no binding (tested: 10.00 (no unit on the sheet))” in assay [9]; “binds” in assay [13]. The IC50 in assay [10] worked out at 0.708 µg/mL; in [11], 0.41 µg/mL. Also, the EC50 in [12] worked out at 0.39 µg/mL; in [14], 0.25 µg/mL. In [2], the “EC50 (read off the curve)” value was about 0.1 µg/mL.

B6: SY01-208 (VHH lysate) (VHH)
VHH: B1 chain with A24H, N32F, G55A
notes: as for B3
Take B6: in assay [5], the binding result is reported as “binds”.

B7: NB22D-21-4 VHH-Fc chimeric antibody protein (Fc fusion)
chain: B1 chain with S29R, G33T, G55L
notes: as for B2
On to B7, for which the 50% effective concentration (EC50) in assay [1] stood at 0.3 µg/mL; in assay [3], 0.21 µg/mL. Further, the “IC50 (read off the curve)” value in assay [15] is about 0.2 µg/mL. The binding result in assay [16] is recorded as “no binding (tested: 20 µg/mL)”. The “EC50 (read off the curve)” value in assay [17] is about 0.2 µg/mL. This molecule also had an IC50 in assay [4] of 0.3 µg/mL.

B8: control antibody KN035 (antibody, V domains shown)
VH: QVQLVESGGGLVQPGGSLRLSCAASGFTFSRRCKAWFRQAPGKERERVAKILTTSGSTYLADSVKGRFTISRDNSKNTVYLQMNSLRAEDTAVYYCAADSFEDPTCTLVTSSGAFQYWGQGTLVTVSS
notes: also called KN035 (control); positive control KN035
In the case of B8, the IC50 in [10] was determined as 0.631 µg/mL; in [11], 0.39 µg/mL. The EC50 in [12] stood at 0.39 µg/mL; in [14], 0.21 µg/mL. Further, the “IC50 (read off the curve)” value in [15] is about 0.2 µg/mL. In addition, the “EC50 (read off the curve)” value in assay [2] is about 0.1 µg/mL; in assay [17], about 0.2 µg/mL.

One may read the EC50 as the concentration needed to bring the measured effect to its halfway point. One may read the EC50 (read off the curve) as the midpoint of the concentration-response curve. The term IC50 denotes the concentration needed to halve the response being measured.
